Test results as given in patent US20240343803A1 (SHANDONG SIMCERE BIOPHARMACEUTICAL, published 2024).

T1: human PVRIG-his (AcroBiosystems, Cat NO. PVG-H52H4) (human, UniProt Q6DKI7 41-171, limits assumed)
T1 construct: also called human PVRIG protein
T1 sequence (looked up): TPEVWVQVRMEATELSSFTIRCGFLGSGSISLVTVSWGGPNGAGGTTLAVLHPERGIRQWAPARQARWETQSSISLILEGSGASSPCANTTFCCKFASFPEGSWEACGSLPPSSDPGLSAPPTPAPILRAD

T2: human PVRIG-mFc protein (Acro, PVG-H5253) (human, UniProt Q6DKI7 41-171, limits assumed)
T2 construct: bought protein
T2 sequence (looked up): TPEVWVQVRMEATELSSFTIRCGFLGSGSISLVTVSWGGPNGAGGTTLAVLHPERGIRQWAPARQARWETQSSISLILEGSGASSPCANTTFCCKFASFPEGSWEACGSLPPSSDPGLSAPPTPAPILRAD


Key:
[1] = biological target: T1, human PVRIG-his (AcroBiosystems, Cat …); assay: competition ELISA, PVRIG-His coated, competitor human PVRL2-mFc
Procedure: The ELISA plate was pre-coated with 100 μL/well of 0.5 μg/mL human PVRIG-his protein (AcroBiosystems, Cat NO. PVG-H52H4). The tested anti-PVRIG antibodies were diluted from the highest concentration of 16 nM (two-fold concentration). The diluted antibodies were mixed with 18 ng/ml human PVRL2-mFc (AcroBiosystems, Cat NO. CD2-H5257) in equal volume, added into the plate (100 μL/well), and incubated with shaking at room temperature for 2.0 hours. […] A HRP substrate, TMB (Thermo, Cat NO. 34029) was added into wells after washing the plate again for color development. After adding a termination solution to terminate the reaction, the absorbance value was read by a microplate reader (MD i3×). An inhibiting curve was drawn with concentration of antibodies as the abscissa and the corresponding OD value as the ordinate. The IC50 value was calculated by using a Four Parameter Logistic Fit (GraphPadPrism9). The smaller the IC50 value, the stronger the ability of the antibodies inhibits the binding between PVRIG and PVRL2. The positive and negative controls are the same as in Example 8.

[2] = biological target: T1, human PVRIG-his (AcroBiosystems, Cat …); assay: SPR (BIAcore), antibody captured on Protein A chip, human PVRIG-His analyte
Procedure: Biacore was used to detect the specific binding between anti-PVRIG antibody and human PVRIG protein. Protein A chip was used in the BIAcore assay. The time required for the chip to capture the diluted antibody and saturate the binding antigen to reach Rₘₐₓ (Maximum binding capacity, 50 RU) was measured by manual run. […] The affinity of antibody for antigen was measured by multi-cycle kinetics. In each cycle, the antibodies were injected prior to the injection of gradient concentraions of PVRIG proteins allowing the occurrence of antibody-antigen association and dissociation After each cycle, the Protein A chip was regenerated by Glycine, pH 1.5 (to remove the proteins on the chip). The affinity of antibody for antigen was calculated by BIAcore T200 analysis software.

[3] = biological target: T2, human PVRIG-mFc protein (Acro, …); assay: FACS competition, PVRIG-mFc binding to CHO-K1-CD112 cells, competitor CD112 on cells
Procedure: A working solution of human PVRIG-mFc protein (Acro, PVG-H5253) prepared with staining buffer, 1 μg/mL (four-fold concentration), was added into a 96-well plate (50 μL PVRIG-mFc working solution per well). […] The diluted antibodies were added to the well containing 50 μL of PVRIG-mFc. The plate was placed on a microplate shaker at 400 rpm for 1 minute to fully mix the antibodies and PVRIG-mFc proteins, and then incubated at 4° C. for 30 minutes. After the incubation, the cell suspension prepared above (100 μL) was added into the wells, gently mixed with the pipette tip and incubated at 4° C. for 30 minutes. After the incubation, the cells were washed twice with staining buffer (200 μL per well) and centrifuged at 350×g for 5 minutes to discard the supernatant. The PE goat anti-mouse IgG Fc antibody (Biolegend, 405337) was diluted 250 times with staining buffer, added into the washed wells (100 μL per well), mixed well, and stained at 4° C. for 30 minutes. After staining, the cells were washed twice with staining buffer, finally resuspended with 200 μL staining buffer and analyzed by flow cytometry (BD, Canto II). The weaker the fluorescence signal, the stronger the ability of the antibodies blocks the binding of CHO-K1 human CD112 cells to the PVRIG-mFc protein. An antibody binding curve was drawn with concentration of antibodies as the abscissa and the corresponding Mean Fluorescence Intensity (MFI) as the ordinate. The IC50 value of the antibodies and the AUC value of the binding curve were calculated by using a Four Parameter Logistic Fit (GraphPadPrism9). The smaller the IC50 value and AUC value, the stronger the ability of the antibodies competes with CHO-K1-CD112 cells to bind to human PVRIG-mFc protein. […] […] The smaller the percentage value, the stronger the blocking ability of the antibodies.

Row | Binder | IC50 [1] [nM] | Kd [2] [nM] | koff [2] [s⁻¹] | kon [2] [M⁻¹ s⁻¹] | % AUC to COM701-hIgG4 [3] [%] | % AUC to SRF813-hIgG1 [3] [%] | % IC50 to COM701-hIgG4 [3] [%] | % IC50 to SRF813-hIgG1 [3] [%]
1 | PVRIG-A104 (Fc fusion, heavy chain antibody VHH-hinge-CH2-CH3, human IgG1 constant part; not shown: human IgG1 hinge-CH2-CH3) EVQVVESGGGLVQAGGSLRLSCAASGRTRSMYVMGWFRQAPGKEREFVGRIKWSGDTTYTSYADFVKGRFTLYGNQARNTVYLQMNSLKPEDTAVYYCYRRSWTNTKLYWGKGIQVTVSS | 0.0659 | 0.0276 | 4.24e-06 | 154000 | 152 | 111 | 118 | 116
2 | PVRIG-A113 (Fc fusion, heavy chain antibody VHH-hinge-CH2-CH3, human IgG1 constant part; not shown: human IgG1 hinge-CH2-CH3) QLQLVESGGGLVQSGGSLRLSCAASGRTRSMYVMGWFRQAPGKEREFVGRIKWSGDTTYTSYADFVKGRFTLYGNQARNTVYLQMNSLKPEDTAVYYCAALPSDYDYRAASYGVDYWGKGTLVTVSS | 0.092 | 0.203 | 8.96e-05 | 442000 | 172 | 106 | 124 | 97.9
3 | PVRIG-A35 (Fc fusion, heavy chain antibody VHH-hinge-CH2-CH3, human IgG1 constant part; not shown: human IgG1 hinge-CH2-CH3) EVQVVESGGGLVQSGGSLRLSCAASGRTRSMYVMGWFRQAPGKEREFVGRIKWSGDTTYTSYADFVKGRFTLYGNQARNTVYLQMNSLKPEDTAVYYCNGRSRFNVINAWGTGTLVTVAS | 0.0543 | 0.846 | 7.53e-06 | 8900 | 145 | 126 | 138 | 136
4 | PVRIG-A75 (Fc fusion, heavy chain antibody VHH-hinge-CH2-CH3, human IgG1 constant part; not shown: human IgG1 hinge-CH2-CH3) QLQLVESGGGLVQSGGSLRLSCAASGRTRSMYVMGWFRQAPGKEREFVGRIKWSGDTTYTSYADFVKGRFTLYGNQARNTVYLQMNSLKPEDTAVYSCAASKFPVSGVPEHYDYWGQGTQVTVSS | 0.0621 | 0.531 | 5.67e-05 | 107000 | 101 | 86.6 | 89.6 | 93.7

Results, then the binder that gave them:

Row | IC50 [1] [nM] | Kd [2] [nM] | koff [2] [s⁻¹] | kon [2] [M⁻¹ s⁻¹] | % AUC to COM701-hIgG4 [3] [%] | % AUC to SRF813-hIgG1 [3] [%] | % IC50 to COM701-hIgG4 [3] [%] | % IC50 to SRF813-hIgG1 [3] [%] | Binder
5 | 0.0528 | 0.367 | 0.00137 | 3.74e+06 | 130 | 72.7 | 134 | 118 | PVRIG-A117 (Fc fusion, heavy chain antibody VHH-hinge-CH2-CH3, human IgG1 constant part; not shown: human IgG1 hinge-CH2-CH3) EVQVVESGGGLVQAGGSLRLSCTASEHIYDLYIMGWYRQAPGKDRELVATITYTGSIYIADSVKDRFTISRGNAKNTVSLQMSGLKPEDTAVYYCNADPSGLGRKLYWGQGTQVTVSS
6 | 0.0537 | 0.366 | 8.58e-06 | 23400 | 128 | 111 | 121 | 119 | PVRIG-A43 (Fc fusion, heavy chain antibody VHH-hinge-CH2-CH3, human IgG1 constant part; not shown: human IgG1 hinge-CH2-CH3) QVQLVESGGGLVQSGGSLRLSCAASGRTRSMYVMGWFRQAPGKEREFVGRIKWSGDTTYTSYADFVKGRFTLYGNQARNTVYLQMNSLKVEDTAVYYCAGRVVPLPSRQRDRYDYWGQGTQVTVSS
